Experiment: yeast display, Sf9 membrane polyspecificity reagent, FACS + sequencing; frameworks hold sequencing errors
Outline: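 Polyreactivity labels are assigned by the sorting gate from which each nanobody was recovered. The gates were low and high (top ~1%), set on anti-HA fluorescence for expression and streptavidin fluorescence for reagent binding. Before sorting, galactose-induced (36–48 hours) yeast display cells were stained for 1 hour at 4 °C with 10% biotinylated, detergent-solubilized Sf9 membrane reagent.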

| Sequence | polyreactivity (PSR sort gate) |
| --- | --- |
| QVQLVESGGGLVQAGGSLRLICAASGRIFVRNAMGWSRQAPGKERELVAAITSGGRTYYADSVKGRFTISRDNAQNTVYVQMNSLKPEDTAVYYCAARAGNASAIDVAYWGQGSQVTVSS | low polyreactivity |
| QVQLVESGGGLVQAGGSLRLICAASGRIINGYAMVWYRQAPGKERELVAANSVSGGSTYYADSVKGRFTISRDNAKNTVYLQMNSMKPEDTAVYYCNARIGSRSYAWISTRYDYWGQGNQVTVSS | high polyreactivity |
| QVQLVESGGGLVQAGGSLRLICAASGRISVFYTMGWYRQAPGKERELVAVIRTSGGRTNYADSVKGRFTISRDNAKNTVYLQMNSLKPEDTAVYYCAARVVRYGYKYYYWGQGTQVTVSS | low polyreactivity |
| QVQLVESGGGLVQAGGSLRLICAASGRTFAINTMGWYRQAPGKERELVATISGSAGNTYYADSVKGRFTISRDNAKNTVYVQMNSLKPEDSAVYSCAARQRKARQIVLLDYWGQGTQVTVSS | high polyreactivity |
| QVQLVESGGGLVQAGGSLRLICAASGRTFARYTMGWYRQARGKERELVASITRGGSTYYADSVKGRFTISRDNAKITVYLQMYSLKPEDSAVYYCNAVYIVGGDWGQGTQVTVSS | high polyreactivity |
| QVQLVESGGGLVQAGGSLRLICAASGRTFGKYAMGWYRQAPGKEMQLVAAITRRGGSTFYADSVKGRFRISRDNAKNTVYLQMNSLKPEDTAVYYCAARSTVGPQYGVRFNYWGQGTQVTVSS | high polyreactivity |
| QVQLVESGGGLVQAGGSLRLICAASGRTFILYTMGWYRQAPGKERELVAAITTGGSTSYADSVKGRFTISRDNAKNTVYLQMNSLKPEDTAVYNWAADTVGYSWRWFTWYEMGYWGQGTQVTVSS | low polyreactivity |
| QVQLVESGGGLVQAGGSLRLICAASGRTFRFYAMGWYRQAPGKERELVAAINYGGGNTYYADSVKGRFTISRDNAKNTVYLQMNSLKADDTAVYYCAAQYYYRARWFPYDYWGQGTQVTVSS | high polyreactivity |
| QVQLVESGGGLVQAGGSLRLICAASGRTFRVYAMGWYRQAPGKERELVASISRRGASTYYADSVKGRFTISRDIAKNTVYLQMNSLKPEDTAVYYCAADRRYYSVSPNTEFEYWGQGTQETVSS | high polyreactivity |
| QVQLVESGGGLVQAGGSLRLICAASGRTFRYYTMGWYRQAPGKEREFVAAISSTGGTYYADSVKGRFTNSRDNAKNTVYFQMNSLKPEDTAVYYWAAYRWGILSAYYYAWYGYWGQGTQVTVSS | low polyreactivity |
| QVQLVESGGGLVQAGGSLRLICAASGRTFSSNAMGWYRPAPGNERELVAAISTSGGRTYYADSVKGRCTISRDNAKNTVYLQMNSLKPEDTAVYYGAAEYVGTGTPDDYAYWGQGTQVTVSS | high polyreactivity |
| QVQLVESGGGLVQAGGSLRLICAASGRTFVANTMGWYRQAPGKERELVATITWNGGSTYYADSVKGRFTISRDNAKNTVYLQMNSLKPEDTAVYYCAKEAYFRRYYVYRYGYWGQGTQVTVSS | high polyreactivity |
| QVQLVESGGGLVQAGGSLRLICAASGRTFYPNAMGWYRPAPGKERELVAAINSGDSTSYADSVKGRFTIARDNAKNTVYLQMNRLKPEDTAVYYCAAAEWYQFFIYRYTYEYWGQGTQVTVSS | low polyreactivity |
| QVQLVESGGGLVQAGGSLRLICAASGRTFYVNAMGWYRQAPGKERELVATITDRGGRTYYADSVKGRFTISRDNAKNTVYLQMNSLKPEDTAVYYCAATRWYEVDYWGQGTQVTVSS | low polyreactivity |
| QVQLVESGGGLVQAGGSLRLICAASGRTVYRYAMGWYRQAPGKERELVAAITTSGGSTYYADSVKGRFTISRDNAKKTVNIQMNSLKPEDTAVYYCARRVYGYYIPYNYWGKGTQVTVSS | high polyreactivity |
| QVQLVESGGGLVQAGGSLRLICAASGRTYRLYAMGWYRQAPGKERELVAAISYSDGRTYYADSVKGRFTISRDNAKNTVYLQMNSLKPEDTALYYCAAETLYVSPYFYVVQYDYWGQGTQVTVSS | high polyreactivity |
| QVQLVESGGGLVQAGGSLRLICAASGSIFDQNDMGWYRQAPGKERELVAAISSGSSTNYADSVKGRFTISRDNAKNTVYLQMNSLKAEDTAGYYCAVTSPYSQGYSFWGADSREYWGQGTQVTVSS | low polyreactivity |
| QVQLVESGGGLVQAGGSLRLICAASGSIFFGNAMGWYRQAPGKERELDAAITLRGGSTYYADSVKGRFTISRDNAKNTVYLQMNSLKPEDTAVYYCNAVSKRYGYGYWGQGTQVTVSS | high polyreactivity |
| QVQLVESGGGLVQAGGSLRLICAASGSIFGDNAMGWYRQAPGKERELVARISSGGNTYYADSVKGRFTISRDNAKNTVYLQMNSLKPEDTAVYYCNVYRYDGDYWGQGTQVTVSS | high polyreactivity |
| QVQLVESGGGLVQAGGSLRLICAASGSIFGDTAMAWYSQAPGKERELVATISSSDASTYYADSVKGRFTSSRDNAKNTVYLQMNSVKREDSAVYYCAKEVNAGYHVWYDYWGEGTQVTVSS | low polyreactivity |
| QVQLVESGGGLVQAGGSLRLICAASGSIFGRYAMGWYRQAPGKETELVAAINDDSGRTYYADSVKGRFTISRDNAKNTVYLQMNSLKPEDTAVYYCAADGYVLWYSFDYWGQGTLVTVSS | high polyreactivity |
| QVQLVESGGGLVQAGGSLRLICAASGSIFGYNAMGWYRQAPGKERELVAAIRISTDNTYYADSVKGRFTISRDNAKNTVYLQMNSLKPEDTAVYYCAASSQTQYGDNYWGQGTQVTVSS | high polyreactivity |

| Sequence | polyreactivity (PSR sort gate) |
| --- | --- |
| QVQLVESGGGLVQAGGSLRLICAASGSIFGYYAMGWYRQAPGKERELVAAISYSGSRTYYADSVKGRFTISRDNAKNTVYLQMNSLKPEDTAVYYCAARGSRLYSSWRGDYWGQGTQVTVSS | high polyreactivity |
| QVQLVESGGGLVQAGGSLRLICAASGSIFIRNAMGWYRQAPGKERELVAAITSRGGSTYYADSVKGRFTISRDNAKNTVFLQMNSLKPEDTAVYYCARRYYGLYDYWGQGTQVTVSS | low polyreactivity |
| QVQLVESGGGLVQAGGSLRLICAASGSIFISYAMGWYRQAPGKERELVAAISSGGSTNYADSVKGRFTISRDNAKNTVYLQMNSLKPEDTAVYYCAADGWLWSFTGDGWWFDYWGQGTQVTVSS | low polyreactivity |
| QVQLVESGGGLVQAGGSLRLICAASGSIFNGYVMGWYRQAPGKERELVAAISSGGRTYYADSVKGRFTISRDNAKNTVYLQMNSLKPEDTAVYYCAADIWYFDYDYWGQGTQVTVSS | high polyreactivity |
| QVQLVESGGGLVQAGGSLRLICAASGSIFPPYAMGWYRQAPGKDREFVAAITISGDSTYYADSVKGRFTISRDNAKNTVYLQMNSLKPEDTAVYYCNADSYAFQYTWGEAYYGLYGYWGQGTQVTVSS | low polyreactivity |
| QVQLVESGGGLVQAGGSLRLICAASGSIFRFYAMGWYRQAPGTERELVAAISKTGGRTYYADSVKGRFTISRDNAKNTFYLQMNSLKPEDTAVYYCAASIREGFYWGQGTQVTVSS | high polyreactivity |
| QVQLVESGGGLVQAGGSLRLICAASGSIFRIYAMGWYRQAPGKEREFVAAISRRGGSTYYADSVKGRFTISRDNAKNTVYLQMNSLKPEDTAVYYCAASGGGSDAYWGQGTQVTVSS | high polyreactivity |
| QVQLVESGGGLVQAGGSLRLICAASGSIFSVNTMGWYREAPGKERELVATIRTGDSTNYADSVKGRFTISRDNAKNTVYLQMNSLKPEDTAVYYCAAEWSSLNFDYWGQGTQVTVSS | low polyreactivity |
| QVQLVESGGGLVQAGGSLRLICAASGSIFTVYAMGWYRQAPGKERELVADIDYGGTYYADSVKGRFTISRDNAKNTVYLQMNSLKPEDTAVYYCAALAALDYGQLYLDDDDYWGQGTQVTVSS | low polyreactivity |
| QVQLVESGGGLVQAGGSLRLICAASGSIFVYNAMGWYRQAPGKERELVAAISYSGGRTYYADSVKGRFTISRDNAKNTVYLQMNSLKPEDTAVYYCAARSQRHKLSREYNYWGQGTQVTVSS | high polyreactivity |
| QVQLVESGGGLVQAGGSLRLICAASGSIFYYYAMGWYRQAPGKERELVATITWNGAGTFYADSVKGRFTISRDNAKNTVYLQMNSLKPEDTSVYYCAASWYGESGYEYWGQGTQVTVSS | low polyreactivity |
| QVQLVESGGGLVQAGGSLRLICAASGSIIAINVMGWYRQAPGKEREFVAAISVRSGSTYYADSVKGRFTISRDNAKNTVYLQMNSLKPEDTAVYYCAARTSRFWRGGGLDYWGQGTQVTVSS | high polyreactivity |
| QVQLVESGGGLVQAGGSLRLICAASGSISYEYAMGWYRQAPGKERELVASIDSDGAGTYYADSVKGRFTISLDNAKNTVYLQMNSLKPEDTAVYYCNSEWYYPYYYSRMDYWGQGTQVTVSS | low polyreactivity |
| QVQLVESGGGLVQAGGSLRLICAASGSIYYSYGMGWYRQAPGKERELVAAITSSGGGTYYADSVKGRFTISRDNAKNTFYLQMNSLKPEDTAVYYCAADDRNYNYYPTFYYWGQGTQVTVSS | low polyreactivity |
| QVQLVESGGGLVQAGGSLRLICAASGSNFWGNTMGWYRQAPGKERELVATISRRGGSTNYADSVKGRFTISRDNAKNTVYLQMNSLKPEDTAVYYCAAVTIYRSYRGNPYYYWGQGTQVTVSS | high polyreactivity |
| QVQLVESGGGLVQAGGSLRLICAASGSTFAYYVMGWYRPAPGTEREFVATITGSGGRTYYADSVKGRFTISRDNAKNTVYLQMISLKPEDTAVYYCAAGVYTGQHEYDYWGQGTQVTVSS | low polyreactivity |
| QVQLVESGGGLVQAGGSLRLICAASGSTFERYAMGWYRQAPGKERELVAAIDSRSGSTSYADSVKGRFTISRDNAKNTVYLQMNSLKPEDTAVYYCAKDYYRPWYDRPLGYDYWGQGTQVTVSS | low polyreactivity |
| QVQLVESGGGLVQAGGSLRLICAASGSTFGRYAMGWYRQAPGKERELVARISWGGGSTYYADSVKGRFTISRDNAKNTVYLQMYSLKPEDTAVYYCATRVYRSAVSYDYWGQGTQVTVSS | high polyreactivity |
| QVQLVESGGGLVQAGGSLRLICAASGSTFGTYAMGWYRQAPGKERELVAAISWSGGSTYYADSVKGRFTISRDNAKNTVYLQMNSLQPEDTAVYWGQGTQVTVSS | low polyreactivity |
| QVQLVESGGGLVQAGGSLRLICAASGSTFGVNAMGWYRQAPGKERELVAAITQSGGSTFYADSVKGRFTISRDKAKNTVYLQMNSLKPEDTAVYYWGQGTQVTVSS | low polyreactivity |
| QVQLVESGGGLVQAGGSLRLICAASGSTFIWNSMGWYRQAPGKERELGATITGSGDRTTYADSVKGRFTISRDNAKNTVYLQMNSLKPEDTAVYYCAGDAYRWWVRYDYWGQGTQVTVSS | low polyreactivity |

From the nanobody polyreactivity screen of Harvey et al. (2022)
